Results reported in paper PMC5667935, “AMPylation targets the rate-limiting step of BiP’s ATPase cycle for its functional inactivation” (eLife, 2017).
Values belong to the molecule of their own block, whether it stands above or below them.

Legend:
[1] = biological target: wildtype Chinese hamster BiP, unmodified (BiP^WT) (Chinese hamster (Cricetulus griseus)) (UniProt G3I8R9)
[2] = biological target: AMPylated wildtype Chinese hamster BiP (BiP^WT-AMP) (UniProt G3I8R9); assay: BLI; conditions: trace 6; AMPylated BiP WT; association in presence of ATP; signal at end of association step (20 min); parent is trace 4; parent: est. 0.95; read off a plot
[3] = biological target: wildtype Chinese hamster BiP, unmodified (BiP^WT) (UniProt G3I8R9); assay: BLI; conditions: trace 3; association in presence of ATP; signal at end of association step (20 min); parent is trace 1; parent: est. 4.2; read off a plot
[4] = biological target: T1, AMPylated Chinese hamster BiP T229A-V461F double mutant (AMPylated BiP^T229A-V461F) (Chinese hamster (Cricetulus griseus), UniProt G3I8R9 19-654, T229A | V461F, AMP on threonine 518 (T518-AMP)); assay: BLI; Octet RED96, streptavidin sensors saturated with biotinylated GST-J (no P15); BiP^T229A-V461F at different concentrations in solution, 1 mM ATP in baseline, association and dissociation; HKM with 0.05% Triton X-100, 24°C; KD from steady state binding signals; binding sensitive to increasing KCl; conditions: both partners purified
T1 construct: BiP (Grp78), Chinese hamster (Cricetulus griseus); Construct limits: see note of m1; source: E. coli M15, purified (Ni-NTA)
T1 sequence (G3I8R9 19-654 T229A/V461F): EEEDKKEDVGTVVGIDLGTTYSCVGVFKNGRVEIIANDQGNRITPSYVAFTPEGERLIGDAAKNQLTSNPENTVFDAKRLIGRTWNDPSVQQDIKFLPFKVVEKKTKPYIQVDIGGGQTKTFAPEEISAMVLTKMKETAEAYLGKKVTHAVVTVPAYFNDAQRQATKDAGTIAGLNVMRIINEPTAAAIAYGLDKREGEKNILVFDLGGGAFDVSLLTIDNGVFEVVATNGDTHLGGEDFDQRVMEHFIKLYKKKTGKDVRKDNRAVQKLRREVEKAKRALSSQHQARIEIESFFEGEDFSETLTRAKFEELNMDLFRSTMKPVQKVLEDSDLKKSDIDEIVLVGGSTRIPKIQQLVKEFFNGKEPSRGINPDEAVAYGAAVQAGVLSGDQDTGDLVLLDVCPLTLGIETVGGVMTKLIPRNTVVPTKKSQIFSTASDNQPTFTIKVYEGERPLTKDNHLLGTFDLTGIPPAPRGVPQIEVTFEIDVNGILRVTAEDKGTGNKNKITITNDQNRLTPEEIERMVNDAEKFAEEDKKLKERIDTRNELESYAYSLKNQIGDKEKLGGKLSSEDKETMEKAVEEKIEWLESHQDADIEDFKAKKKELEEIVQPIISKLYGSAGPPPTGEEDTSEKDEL

[5] = biological target: T2, Chinese hamster BiP T229A-V461F double mutant (BiP^T229A-V461F), unmodified (Chinese hamster (Cricetulus griseus), UniProt G3I8R9 19-654, T229A | V461F); assay: as above; conditions: both partners purified
T2 construct: BiP (Grp78), Chinese hamster (Cricetulus griseus); Construct limits: see note of m1; source: E. coli M15, purified (Ni-NTA)
T2 sequence (G3I8R9 19-654 T229A/V461F): as above

[6] = biological target: T3, AMPylated wildtype Chinese hamster BiP (BiP^WT-AMP) (Chinese hamster (Cricetulus griseus), UniProt G3I8R9 19-654, AMP on threonine 518 (T518-AMP)); assay: BLI; Octet RED96, streptavidin sensors with biotinylated GST-J (to 0.4 nm) then saturated with biotinylated P15; BiP 15 µM in HKM with 0.05% Triton X-100 and 2 mM ATP for association; dissociation in protein-free solution with 2 mM ADP or ATP; 24°C; one-phase decay fit of the dissociation; conditions: both partners purified
T3 construct: BiP (Grp78), Chinese hamster (Cricetulus griseus); Same construct as m1, AMPylated at high stoichiometry (intact mass spectrometry); Construct limits: see note of m1; also called BiP-AMP; AMPylated BiP; source: E. coli M15, purified (Ni-NTA)
T3 sequence (G3I8R9 19-654): as the sequence (G3I8R9 19-654 T229A/V461F) above, with A211T, F443V counted along it

[7] = biological target: T4, wildtype Chinese hamster BiP, unmodified (BiP^WT) (Chinese hamster (Cricetulus griseus), UniProt G3I8R9 19-654); assay: as above; conditions: both partners purified
T4 construct: BiP (Grp78), Chinese hamster (Cricetulus griseus); also called Grp78; haBiP; source: E. coli M15, purified (Ni-NTA); unmodified control from mock AMPylation reactions without enzyme
T4 sequence (G3I8R9 19-654): as the sequence (G3I8R9 19-654 T229A/V461F) above, with A211T, F443V counted along it

[8] = biological target: T5, Chinese hamster BiP T518E mutant (BiP^T518E) (Chinese hamster (Cricetulus griseus), UniProt G3I8R9 19-654, T518E); assay: as above; conditions: both partners purified
T5 construct: BiP (Grp78), Chinese hamster (Cricetulus griseus); Mimics aspects of AMPylation; Construct limits: see note of m1; source: E. coli M15, purified (Ni-NTA)
T5 sequence (G3I8R9 19-654 T518E): as the sequence (G3I8R9 19-654 T229A/V461F) above, with A211T, F443V, T500E counted along it

wildtype Chinese hamster BiP, unmodified (BiP^WT) (Chinese hamster (Cricetulus griseus)), sequence (G3I8R9 19-654): as the sequence (G3I8R9 19-654 T229A/V461F) above, with A211T, F443V counted along it

response [2]: 0.1 nm
response [3]: 0.14 nm
Molecule: biotinylated GST-J^WT and biotinylated P15 substrate peptide co-immobilized on a streptavidin BLI sensor (from UniProt Q91YW3) H422Q

koff [6]: 0.00329 s⁻¹
koff [7]: 0.00079 s⁻¹
koff [8]: 0.00165 s⁻¹
B2: biotinylated GST-J^WT and biotinylated P15 substrate peptide co-immobilized on a streptavidin BLI sensor (other, mouse)
chain: QRLLKQSQKRDYYKILGVKRNAKKQEIIKAYRKLALQWHPDNFQNEEEKKKAEKKFIDIAAAKEVLSDPEMRKKFDDGEDPLDAESQ
peptide: ALLLSAPRRGAGKK
modifications: biotinylated with Biotin-maleimide | biotinylated on the C-terminal lysine
notes: J-domain of P58/ERdj6, mouse, residues 384-470; P15 model BiP substrate peptide (Misselwitz et al., 1998); Not a complex: two separately biotinylated ligands on one sensor surface (GST-J to ~0.4 nm signal, then saturation with P15); the signal is not divided among them; also called sensors carrying GST-J^WT and P15; GST-J^WT-coupled sensors; source: GST-J^WT: purified GST-fusion protein, …

Further lines, the molecule ahead of its results:

Molecule: wildtype J-domain of mouse P58/ERdj6 (residues 384-470) fused to GST (GST-J^WT) (from UniProt Q91YW3 384-470) (domain or fragment)
rate of ATP hydrolysis by BiP in a single-turnover ATPase assay with wildtype GST-J (2 µM) compared with non-functional GST-J^QPD [1]: > 4 fold

B1: wildtype J-domain of mouse P58/ERdj6 (residues 384-470) fused to GST (GST-J^WT) (domain or fragment, UniProt Q91YW3 384-470, looked up)
chain: B2 chain
modifications: biotinylated with Biotin-maleimide for the BLI experiments (a fraction of the purified protein); not biotinylated in pull-down, SEC and ATPase assays
notes: J-domain of P58/ERdj6, mouse, residues 384-470; also called model J-domain
Kd [4]: ~14 µM
Kd [5]: ~14 µM
